Laboratory results reported in the DeepSol protein solubility set.

experiment: soluble on expression in E. coli; label from the status in PepcDB or PDB records

Soluble on expression in E. coli, not soluble:
MGSDKIHHHHHHLPALRLLAGPTAYEQLEANGLDQSLFTQLFAASGGPKWLAIAGLDKYLFSEFFQDREDPLYTMGASSGAWRLACMAQQDPLAAYERLEHFYIHQNYEKKPTREQVSAQVLQIVDGILGEQQGADIIANPLIRHHMVACRARHLNRIHAKFGLMMGLSMAAVSNVVNRKSLGWHFERVILSHKDAASPFRRLKDLPTKHVELTQDNIRHGLLATGSIPLLLDPVKDLQGSPKGHYYDGGITDYHFDMPLPAATGLSLYPHFYPYMSPGWFDKSLLWRKAKANYHNGLILAPSKQFIASLPFSKIPDREDFKNLDTKSRITYWQQSVQQSQVLADEFAEIVASGTIMDRIERL, MGSDKIHHHHHHLTLRVAVIGSGPAGSSAAETLAASGIETYLFERKLDNAKPCGGAIPLCMVSEFDLPPEIIDRRVRKMKMISPSNREVDINLINEDEYIGMCRREVLDGFLRDRAAKLGANLINATVHKLDIPGNNTDPYTIHYVDHTEGISQGIAKTLKVDLIIGADGANSRVAKEMDAGDYNYAIAFQERIRLPEDKMAYYNDLAEMYVGDDVSTDFYAWVFPKYDHVAVGTGTMHINKASIKQLQAGIRARASEKLAGGKIIKVEAHPIPEHPRPRRVVGRIALVGDAAGYVTKSSGEGIYFAAKSGRMCAETIVEASNSGSRIPTEGDLKIYLKRWDKRYGLTYKVLDILQSVFYRSDATREAFVEMCDDLDVQRLTFDSYLYKTVVPANPITQLKITAKTIGSLIRGNALAP, MGSDKIHHHHHHMAAQNAFEQKKRAILNEIDSTQPDLSPKGTIDELCLPIIDLINASADMVTTSSCSGRVSVFLEGTKSYNGEVKIGGKGQGGKWLYVTHDREKVIGWLDELKSKSEFSFELSGKEIPTEKVTGSIRYILYKYEPFILHVKCRDFQAASKLYNTAMSCGFRESGIGSNNLVAIRINIKLDVPLGYLDETSGTLKFFVTPEYVSVLDSLSLSKFDENTRKMQALYDRIEKELINCAPDVNSKVNITPIETKEERRERKKREGMERQRQLKSPQNVL, MGSDKIHHHHHHMADGGSERADGRIVKMEVDYSATVDQRLPECAKLAKEGRLQEVIETLLSLEKQTRTASDMVSTSRILVAVVKMCYEAKEWDLLNENIMLLSKRRSQLKQAVAKMVQQCCTYVEEITDLPIKLRLIDTLRMVTEGKIYVEIERARLTKTLATIKEQNGDVKEAASILQELQVETYGSMEKKERVEFILEQMRLCLAVKDYIRTQIISKKINTKFFQEENTEKLKLKYYNLMIQLDQHEGSYLSICKHYRAIYDTPCIQAESEKWQQALKSVVLYVILAPFDNEQSDLVHRISGDKKLEEIPKYKDLLKLFTTMELMRWSTLVEDYGMELRKGSLESPATDVFGSTEEGEKRWKDLKNRVVEHNIRIMAKYYTRITMKRMAQLLDLSVDESEAFLSNLVVNKTIFAKVDRLAGIINFQRPKDPNNLLNDWSQKLNSLMSLVNKTTHLIAKEEMIHNLQ, MGSDKIHHHHHHMADISIEQSMQLFELQPGKSLDLQINNPVSLRLKLPLIGYELGKYIILKYPKSANTSEYKDVLIEGNVLIVRYLMEGNKGECFAFRSSIKNITQYPEKFIFIEYPNKIENRQLRLQQRTSIHLPAIIMLESSGDNKKTQINGIIGDISAKGCGFTFKTKSTSTKVNKRDIFVCLRSPIDGEVQIPARVCNSRNDNGTVNVGIQFIDNEKLVPKLLSELFIENTMS, MGSDKIHHHHHHMAELIFSRETDCRYCYKCLRNCPVKAISFKSGKSTVLEEECVFCGSCLDICPQNARSYRKDVERFLSLSEPFLVSIAPSFFAYFENPLKVIGVLKEMGAVVVQETAVGAEIVSRRYEEVFEKHSGPFITTACPVVVNLAEKHFPNVLKYFAPVDSPLMTHAKFLKTRYGDFPIVFVGPCIAKKSESDLVDVALTFEELEEILEEREGKEALPDGPYPDRARFYPTTDGIGYTVSVPWEKKLVVEGVENLMRVFSRIDEYKSVFIEASACYGSCLNGPVMKKKSNGKERLLEWQKKLPKEPK, MGSDKIHHHHHHMAGSVIHLDENAGPPATHGLVVGVGKYPHLEGGEAPVADSDGMRQLSSPPLSARAFARWLLAEYHDPQRPLGSVSLLLSEEQPAPFVNPRTGTAHEVEVATIDNILAAVTQWYDRGDSHVDNRLVFYFCGHGISQGDDMALLAADIFADPHNPLNGALDFAGLMNGLKRCKASQQVFFLDACRSNSDVLIEASGTRFAGRTPLGAGARPLDLPRRFHIPYYATLSGDQSHARPGQVSLFTEALLKSLAGAASDDPEGDWRVNTAHLLEAIDHFMHQPCFAGMVAGVQVPAVGELPVFVLHQLAGPPVVPVYVGCDPAQDNAEAEFVCLEGGRERLRRTLNDVDDTDPESEWAIELSFGDYDFEARLGERDVRTKTITVRPVFRRVHLVKS, MGSDKIHHHHHHMAHYEVKPSFYNYVFSPYLEPAIKVNPGDTVSLYTDDAFESRITSEDVSPKAAVRNAKFLNPQSGPVYINGAEPGDTLAVHFESIEFTRDWAVSCVMEYFGGLQSNSITKMLQKPLVEEVYIWKSKDKGQTWTNDKIGVTIPANPFCGTLATAPDTEAIQALTPGQFGGNMDCPDICPGHTIYLPVHNPGALFYIGDCHAAQGQGELCGVALEISAKATLKFDVIKNKVTNWPRIESPEKIMSVGSAKPMEDAARIAYADLIDWMVSDYGFKVLDAYELLTMVGGLYVANMVDTTYSLCASIEKKYLKRNS, MGSDKIHHHHHHMAIETILVINKSGGLIYQRNFTNDEQKLNSNEYLILASTLHGVFAIASQLTPKALQLTQQTNIENTIPYIPYVGMSSNRSDTRNGGGNNNKHTNNEKLGSFKGDDFFKEPFTNWNKSGLRQLCTDQFTMFIYQTLTGLKFVAISSSVMPQRQPTIATTDKPDRPKSTSNLAIQIADNFLRKVYCLYSDYVMKDPSYSMEMPIRSNLFDEKVKKMVENLQ, MGSDKIHHHHHHMAILLMQKPDNKAKQFICKKLGINNLGITKPGGRGLTQPVVKLELKRPLYAKGNNYNIINNDETDRYWKPAGITKIFLDRLTNCVSQEAGNMALAEGYFSLEDRYTLYFDISKIQQEFVDLNAQEFFRQFDNLKTLGMLADIAIPLQLCNGLDASITNFSDGQFQSVYIYSIVELFKDRNCLTLLDEPDSFLHPEWQFEFPKQVLEITDAAAKSNHILMSSHSASTITTANENLINLFELQDDKIVVNKVNKADIIKSLSAGLISFSESEAHLNIHHALKNTTGAVLFTEGITDEMILETAWTKIFPAQKRSFAIQNAFDRIFLRNLFSREELEKNFPDRIMFALFDFDEAYDDWNGLKKESDSETDPYKGLSKQLKCKHHYAMLLPVPDIQALKHQVLNPEGKPWGKGAQSHLPIELLFYKDEFLGQWFQKKATPGGGEIIEFIGDKVSFAKNFVPTLEATCFEPLKLVFEFIQSKC, MGSDKIHHHHHHMAKAPKMAFVCDDCGLDYPRWQGQCRCGAWNSLVEMKLSASKSSTSRSSVLGYAGAVGGGSKKLSEVESEDAEKRLTEIGELDRVLSGGLTTGSVNIISGDPGAGKTTLLSDLVARMSQSMASLYCTAEESLSQFKNRVNRLKLNYNEDNLFLLSETSVEAIIEELEAKQIKFAVIDSIQAVVTDAANGSPGSPSQVKTAAQAFTQYCKKNNVTMFIIAHVNKNNEIAGPQTLVHIVDSLLHIDTNDGQIRTLRANKNRFGDVDTVGIFRMSERGMISVDNPSEIFLSGSTTESPGSTITCIRKGNRNLLLEIQCLTTETESEFPQRVCVGLNMNRIKMLTGILRKHTKTKIFHDTFFNIVGGLKIDESETCIDLALVTALLSSLNDFVVPRTTCIMGELSLNGDVRPIDSGVPRVKEAAQHGFTEIFIPFRNYHKTMEGLGAKIIPVKTIHELLELIN, MGSDKIHHHHHHMAKCNAVAGFNALNGVQLNLFTTDELKAIHYATMEVLMDPGIQVSDPEARQIFKENGCEVNEQTNVVKIPEYLVRRALQLAPSRFVLWGRDKKYNTVQEAGGKVHWTCFGTGVKMCKYQEGKYVTVDSVEQDIADIAKLCDWAENIDYFSLPVSARDIAGQGAQDVHETFTPLTNTAKHFHHIDPVGENVEYYRDIVNAYYGGDEEEARKKPIFSMLLCPTSPLELSVNACQVIIKGARFGMPVNVLSMAMSGGSSPVYLAGTLVTHNAEVLAGITLAQLTVPGAKVWYGSSTTTFDLKKGTAPVGSPELGLISASVAKLAQFYGLPAFVAGT, MGSDKIHHHHHHMAKKTAVVDLGSNSIRMVIFEKTSRYGFYTTCEYKRKVRLGENAYNNGKILQEEAMQRAEDALAFFKQCALKHKCKKIFIVGTSALRDAPNSKNFIKRIKDNLSLNIRCIDGKSESYLGGLAALNLLSPFKDGTTLDIGGGSSELCLIKNNRIISCISLDIGTVRLKELFYDTGKMDSLEEFIKPILEQIPKEFCNQNLIAIGGSLRAISNSIMQKNSYPLKNLHDFRYMLDEEKGHILKIFNSNLDSLINFGIKKDRFDTIKEGIFIFLKIAEKIKAKQVITSGVGIREGVYLQDLLRPKITFPPNFNPSLKCLQDKFLQSKQKNKTPHFALQIFTTLKNLHKLNDNYKHTLLNAAKLCHIGEYLNFYFANEHSAHFVLGGLNYGFSHKEKALIASIIKLNGKKVNPYNLEPYKQLLPNIHTISWLNFILCLAKTLSANEDKIDFAFANNTLYIYQENKILNLPKDELKKIAKPATIALAINQKI, MGSDKIHHHHHHMAKRSIAYLDSVFDISYTFIDHHSPLNALFLHGWGSSKEIMQQAFQGCFLNYNHLYVDLPGFNQSPNDEKVLETKDYANIINLFLKSVGKKAHVVFGHSFGGKVAILCENERMVLLSSAGILEPKPLKVRCKILLAKIFKKLGLNLGFLRSKDAMGLNQAMYETFKKVISEDFSDHFKRCEKEVLLFWGKDDKATPLSSAQKMQTLLKRSVLFVLEGDHFFFLNQAKEIEKLVENYHHAKS, MGSDKIHHHHHHMAMAHGRRRVFGSVEHRKIDMSFRPLFGSGRIRTAGEQPAQPTTASWPGSSVVFDRRRWTCREAELRWTAPHHVLVLTEEGATSQTSIRSDGKMVYEGRDRSGAITFVPAGVERLGAYRDVDLTYSALWIDPRSISPASEHLKDLPVLINKSDTVISALLKSLSSEISNGHIPDSAYVDHLIALVTLRIRGFADEPVPAPRHDSLGSRVVKRVRDYVDAHLDGDISLGDLADVAGVASDSFARRFKVTTGFAPYAYVLEERIRRSEALLCETDTTLSAIALACGFSSQSHFTTTFKRLRGVTPQAYRSKVIPES, MGSDKIHHHHHHMANLYDLKKFDLNLLVIFECIYQHLSISKAAESLYITPSAVSQSLQRLRAQFNDPLFIRSGKGIAPTTTGLNLHHHLEKNLRGLEQTINIVNKSELKKNFIIYGPQLISCSNNSMLIRCLRQDSSVEIECHDILMSAENAEELLVHRKADLVITQMPVISRSVICMPLHTIRNTLICSNRHPRITDNSTYEQIMAEEFTQLISKSAGVDDIQMEIDERFMNRKISFRGSSLLTIINSIAVTDLLGIVPYELYNSYRDFLNLKEIKLEHPLPSIKLYISYNKSSLNNLVFSRFIDRLNESF, MGSDKIHHHHHHMANPLTGYNFAYLDEQTKRMIRRAILKAVAIPGYQVPFGGREMPMPYGWGTGGIQLTASVIGENDVLKVIDQGADDTTNAVSIRQFFKRVTGVATTERTEDATLIQTRHRIPETPLVEDQILIYQVPIPEPLRFIEPRETETRTMHALEEYGVMQVKLYEDIARFGHIATTYAYPVKVNGRYVMDPSPIPKFDNPKMHMMPALQLFGAGREKRIYAVPPYTPVESLDFDDHPFTVQEWDEPCAICGSRHSYLDEVVLDDSGQRMFVCSDTDYCRQQSEGQKK
